In the supplement of paper PMC9170038:

Test system: MS2 coat protein
Assay: apparent KD of MS2 coat protein; designed switch direction (-1 OFF switch, 1 ON switch): -1; higher = weaker reporter binding
Summary of the method: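 Designed RNA switches with common flanks were transcribed on Illumina chips by stalled E. coli RNA polymerase and titrated with SNAP-549-labelled MS2 coat protein, from 0.7 or 1.5 nM doubling to 3 µM, in Tris-HCl pH 7.5 buffer with KCl, MgCl2, BSA, DTT, tRNA and Tween-20. Steps lasted 0.8–1.5 h (lowest) to 10–20 min (highest). Titrations ran without input, with 200 uM small-molecule ligand, or with an oligonucleotide input. Normalised cluster fluorescence was curve-fitted, and apparent KD is the per-design median over clusters.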

[1] = Eterna round: R95, input ligand: FMN 200 uM
[2] = Eterna round: R95, input ligand: microRNA oligo, concentration not stated
[3] = Eterna round: R95, input ligand: none
[4] = input ligand: microRNA oligo, concentration not stated

Sequence	apparent KD of MS2 coat protein (input ligand: FMN 200 uM)	apparent KD of MS2 coat protein (input ligand: none)	apparent KD of MS2 coat protein [1]	apparent KD of MS2 coat protein [2]	apparent KD of MS2 coat protein [3]	apparent KD of MS2 coat protein [4]
CCUCUACAUGAGGAUCACCCAUGUGAGGAUAUCAAAGUCAGAGCGGCUCUCUGACUCAUGAGAAGGUGCAUGAA [EX1 A.13] (Eterna round: R97, puzzle: Exclusion 1)	30.6 nM	21.6 nM				
ACGUGAUACCUGUCGGUGGACAUGAGGAUCACCCAUGUAAGCUUUUUGCUCGUCUUAUAACCCGGUGACAGACCUUC [Racequbebe] (puzzle: Sensor v3, turn-off variant 1)			97.7 nM	544 nM	142 nM	
CUGGUGUGAGGAUAUCAGGACACGCCCGAGGGCGUGUCAAAUGAGAAGGCACAUGAGGAUCACCCAUGUGGGAC [Atisrage] (puzzle: Exclusion 4)				39.8 nM		
AGCUAGUGAGGAUAUACAAGAAUAUAAACGAACAUAAAGGGACAUGAGGAUCACCCAUGUAGAAGGCACUAGCA [Diamond 73] (Eterna round: R96, puzzle: Exclusion 2)						29.3 nM
UCACAAGCUGUGGGUGGUGACAUGAGGAUCACCCAUGUUUUGCUCGUCUUGUGCCGGGCCCGGCGCCCGGGCCCGGC [-42.1, -69.5, A 12%] (Eterna round: R97, puzzle: Sensor, turn-off variant 1)	929 nM					
AUUAUAAAUGUAGGAUAUCUGCACGUUUAGUGCAGAGAAGGACAUGAGGAUCACCCAUGUAGAUCAAUAAUAAUUAAUUUAAUU [ENG1/5-B2] (Eterna round: R96, puzzle: Exclusion NG 1)	146 nM	33.7 nM				29.1 nM
GGAGAGGUAGGAUAUGGAGGUUAAAACAUGAGGAUCACCCAUGUUAAACCUCAUGACCGACUAGAAGGACCAGUCC [AK-MS2ROC-r4-exclusion5-8] (Eterna round: R97, puzzle: Exclusion 5)	15 nM	11.1 nM				
UGCCGAUGAGGAUAUACAUUGAAUAAGAUUCAUGUAAAACUACAUGAGGAUCACCCAUGUAGAAGGCAUUGGCU [Mat - Exclusion 2 - JL Mod - D69] (Eterna round: R97, puzzle: Exclusion 2)	25.7 nM	15.6 nM				
AGUGUGUGGCAGGAUAUGCGAUUUGUAGGUGAAGCAGAAGGGUCUACAUGAGGAUCACCCAUGUGUGCGGUUGA [Ex6 #18] (Eterna round: R97, puzzle: Exclusion 6)	457 nM	216 nM				
ACAUGAGGAUCACCCAUGUCCGGCUGGUCUGUUUCGGUUGUCGAGGAUAUAGUUCGGUGUUCGCGCUAGAAGGUGGGAGCUGGC [Aenatbe mod 57] (Eterna round: R96, puzzle: Exclusion NG 3)	143 nM	175 nM				108 nM
AUACAACAUGAGGAUCACCCAUGUGAGGAUAUGCGAUAUAUCAUCAUCAUAAUCAUAAGCAGAAGGCACAACAU [Another One] (puzzle: Exclusion 1)			35.7 nM	35.6 nM	34 nM	
UCGCUGCGAGGAUAUACGUUUGCGCGUUUUCGUUUGCGCGUACAUGAGGAUCACCCAUGUAGAAGGCGCGCUGC [Apr-15 SS2-10] (puzzle: Exclusion 2)				13.3 nM		
CCCAGUUAUCAAGGAUAUUGUACAUGAGGAUCACCCAUGUAAUAAAUGAGGAUUUCGGGUGUCUACAAGAAGGUGAGGAUAGGC [Ostracism 15 - Jieux - Exclusion NG 2] (Eterna round: R96, puzzle: Exclusion NG 2)	26.6 nM	46.4 nM				22.4 nM
AUUGAGCUAGGAUAUACAUGAGGAUCACCCAUGUAGCAAAAUAGCUAUACAUGAUCGGGUAGAAGGAGCGCGAG [Tirivela] (puzzle: Exclusion 3)				14.3 nM		
AGAAGUGCCGAGGAUAUCCAGGCAAUCUCGUUCGGAGAAGGCGGCACUUGAGGAUCACCCAAGUGCUCCUAAGA [Islariat] (Eterna round: R97, puzzle: Exclusion 6)	52.1 nM	14.1 nM				
AUAAAGAAUGUUAGGAUAUUGGUGAAUAGGCUGACUAAGAAGGAACAUGAGGAUCACCCAUGUAAAAUGGAAAA [Readima] (puzzle: Brourd's mod of Exclusion 4)			66.7 nM	23 nM	29.1 nM	
GUGUUUUAUGUAGGAUAUGCAUACUGUUAGUAUGCAGAAGGACAUGAGGAUCACCCAUGUAUAUUAUUAUUAUAUAUCAUACAU [MOD2 of Hoglahoo's Title] (Eterna round: R96, puzzle: Exclusion NG 1)	98 nM	18.9 nM				16 nM

Sequence	apparent KD of MS2 coat protein (input ligand: FMN 200 uM)	apparent KD of MS2 coat protein (input ligand: none)	apparent KD of MS2 coat protein [1]	apparent KD of MS2 coat protein [2]	apparent KD of MS2 coat protein [3]	apparent KD of MS2 coat protein [4]
CCGGCGUCAGGAUAUCGUAGCAGGACAUUCAGUCGCGGCUAUGAGAAGGGACAUGAGGAUCACCCAUGUCCUCA [Eternabot (Original) Solution 22] (Eterna round: R97, puzzle: Exclusion 4)	29.5 nM	21.5 nM				
AAACAGGGAGGAUAUACAUAGAUCCUCUAACCUAAUUGGUCACAUGAGGAUCACCCAUGUAGAAGGCCCUUAGG [Enquanes] (puzzle: Exclusion 2)				13.6 nM		
AGAGAAAAUCUAGGAUAUGUGUAUGCCGCGUGCGCAGAAGGAGACAUGAGGAUCACCCAUGUAAAGAGACAGAAGACGACCAAA [Matt's Exclusion] (Eterna round: R96, puzzle: Exclusion NG 1)	55.7 nM	67.5 nM				38.7 nM
GUAGAGUAAGGAUAUCAUGAAUAGGAUAGAAUGGUUAGAAAUGAGAAGGUACAUGAGGAUCACCCAUGUAAUGU [Excluse me!!!! 12 - Jieux - Exclusion 4] (puzzle: Exclusion 4)			20.5 nM	21.6 nM	17.1 nM	
CCGUCCCGCCCUGGGUGGGACAUGAGGAUCACCCAUGUGGGUUUUCUUUCUUUCACCCGGGCGGGCGGGCGGGCUGG [sensor,turn-off variant1(1)] (Eterna round: R97, puzzle: Sensor, turn-off variant 1)	20.4 nM	54.8 nM				
UAUUAAGCAAGCAGAUCCCACAUGAGGAUCACCCAUGUGCUCGUCUUAUAAGGUACUGUGACAAAAGUCACGGUACC [Mat - Sensor, turn-off var - Eli Mod - D74] (Eterna round: R97, puzzle: Sensor, turn-off variant 1)	121 nM	135 nM				
UUAAUUUGAGGAUAUACUAUUAACCACAUGAGGAUCACCCAUGUUCUAUCAUGUAUAUGUGUAGAAGGCAGAAUGC [JR_Ex5_Sub071] (Eterna round: R97, puzzle: Exclusion 5)	58.1 nM	50.7 nM				
AGUCAGGCGGUAGGAUAUCCAAAUCGAGUGACCCUUUCAUAACAUGAGGAUCACCCAUGUCGGUGGGAGAAGGGCCGUACGGCG [JL ViennaUCT Atra mod 3] (Eterna round: R96, puzzle: Exclusion NG 2)	232 nM	104 nM				88 nM
AGCUAGAUAGGAUAUGCCCGGGAUAACAUGAGGAUCACCCAUGUGGCCGAAUCAAAUCCAGCAGAAGGGUUUGGGA [Mod of ViennaUCT 12 - Jieux - Exclusion 5] (Eterna round: R97, puzzle: Exclusion 5)	30.8 nM	38.7 nM				
GUAUGUCUAGGAUAUAUAUUGGAAUGUCCGUGUCCUAGCCAACAUGAGGAUCACCCAUGUAGAAGGAGAUGUGU [Eternabot (L1) Solution 97] (Eterna round: R97, puzzle: Exclusion 2)	43.5 nM	52.8 nM				
UAUUAAACAAGCGGAUCCCACAUGAGGAUCACCCAUGUGCUCGUCUUAUAAGGUACUGUGACGAAAGUCACGGUACC [Sensor 3, v1 - 91 v13] (Eterna round: R97, puzzle: Sensor, turn-off variant 1)	25 nM	28.9 nM				
CCACUGUCAGGAUAUCGUGCAUACAACGAAAGUUCUAUGUGCGAGAAGGGACAUGAGGAUCACCCAUGUAAACG [Omei Ex4 A28] (Eterna round: R97, puzzle: Exclusion 4)	582 nM	138 nM				
AUAAAGUGAGGAUAUAUAAGACACGGUGAUACACCGUGAAAAUAGAAGGUACAUGAGGAUCACCCAUGUAGGGC [Mod of Anonveat 18 - Jieux - Exclusion 4] (Eterna round: R97, puzzle: Exclusion 4)	33.6 nM	29.4 nM				
CUGGACUGAGGAUAUUGUGCUGCUGACAUGAGGAUCACCCAUGUAUGUUAACUCGGCCGUCGAGAAGGCAGACAGG [BotMod 18 - Jieux - Exclusion 5] (Eterna round: R97, puzzle: Exclusion 5)	16.5 nM	19.1 nM				
AUGUUACUCUGAGGAUAUUGUUUAUUCUUCUCACAUGAGGAUCACCCAUGUUUCCAUGUUAACCGCAAGAAGGCAGUAUUGAUU [JR_ExcNG2_Sub030] (Eterna round: R96, puzzle: Exclusion NG 2)	76.1 nM	55.1 nM				49.1 nM
UUUUAACAUGAGGAUCACCCAUGUGAGGAUAUCGAAAUUUAUAUUAAUAUUUAUUAAACGAGAAGGCACAUUUU [JMF 59] (puzzle: Exclusion 1)				82 nM		
UAAUAUAAGCAAAGAUCCUACAUGAGGAUCACCCAUGUGCUCGUCUUAUAAAGUACUAUCACGAAAGUGAUAGUACA [Mat - Sensor v3 - turn-off var 1 - Eli Mod - D81] (puzzle: Sensor v3, turn-off variant 1)			116 nM	19.8 nM	170 nM	
